Ends that are not written are not given here.
Biological target: I-A^q molecule of MHC (mouse (DBA/1))
Assay: cell-based or functional assay

PTGPLGPKGQTGELGIAGFKGDTGAK (not fully specified) [CII 245-270 [s266, 267, 269]]
640 U/ml: IL-2 U/ml, T-cell hybridoma qCII85.33, molar ratio competitor:CII 245-270 1.6:1 | IL-2 U/ml, T-cell hybridoma qCII85.33, molar ratio competitor:CII 245-270 3.2:1 | IL-2 U/ml, T-cell hybridoma qCII85.33, molar ratio competitor:CII 245-270 6.5:1 | IL-2 U/ml, T-cell hybridoma qCII85.33, molar ratio competitor:CII 245-270 13:1
160 U/ml: IL-2 U/ml, T-cell hybridoma 2qCII92.33, molar ratio competitor:CII 245-270 1.6:1 | IL-2 U/ml, T-cell hybridoma 2qCII92.33, molar ratio competitor:CII 245-270 3.2:1 | IL-2 U/ml, T-cell hybridoma 2qCII92.33, molar ratio competitor:CII 245-270 6.5:1 | IL-2 U/ml, T-cell hybridoma 2qCII92.33, molar ratio competitor:CII 245-270 13:1 | IL-2 U/ml, T-cell hybridoma qCII98.10, molar ratio competitor:CII 245-270 1.6:1 | IL-2 U/ml, T-cell hybridoma qCII98.10, molar ratio competitor:CII 245-270 3.2:1 | IL-2 U/ml, T-cell hybridoma qCII98.10, molar ratio competitor:CII 245-270 6.5:1 | IL-2 U/ml, T-cell hybridoma qCII98.10, molar ratio competitor:CII 245-270 13:1

Reference: patent US6423315 (UNIVERSITY OF TENNESSEE RESEARCH, dated 2002)
